Laboratory results: patent US20230051715A1 (MABWELL THERAPEUTICS, published 2023)
Changes are numbered by the printed parent chain. Names and notes keep the numbering of the source.

T1: human C1s mutant M11 (S349P) (human, UniProt P09871 16-688)
T1 construct: The entry is the mutant itself
T1 sequence: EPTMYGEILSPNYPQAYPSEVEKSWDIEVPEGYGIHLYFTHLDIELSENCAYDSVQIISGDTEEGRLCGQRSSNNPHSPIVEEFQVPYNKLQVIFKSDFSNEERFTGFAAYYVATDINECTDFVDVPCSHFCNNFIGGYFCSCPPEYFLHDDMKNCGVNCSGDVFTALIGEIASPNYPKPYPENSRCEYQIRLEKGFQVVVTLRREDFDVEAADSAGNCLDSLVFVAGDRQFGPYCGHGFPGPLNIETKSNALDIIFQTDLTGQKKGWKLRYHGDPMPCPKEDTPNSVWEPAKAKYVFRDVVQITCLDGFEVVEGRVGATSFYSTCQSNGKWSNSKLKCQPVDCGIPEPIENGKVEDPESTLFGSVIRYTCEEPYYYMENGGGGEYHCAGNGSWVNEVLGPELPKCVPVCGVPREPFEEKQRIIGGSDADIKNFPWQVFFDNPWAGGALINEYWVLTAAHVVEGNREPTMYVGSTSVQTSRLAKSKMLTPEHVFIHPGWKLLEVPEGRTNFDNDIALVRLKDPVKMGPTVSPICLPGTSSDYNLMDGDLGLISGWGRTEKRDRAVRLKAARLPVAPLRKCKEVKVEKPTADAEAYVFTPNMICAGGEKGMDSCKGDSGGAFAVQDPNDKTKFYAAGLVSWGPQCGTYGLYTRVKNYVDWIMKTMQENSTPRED

T2: human C1s mutant M6 (P280A, E282K & K336G) (human, UniProt P09871 16-688)
T2 construct: The entry is the mutant itself
T2 sequence: T1 sequence with P280A, E282K, K336G, P349S

B1: Anti-C1s antibody hz2-7(H1L2) (antibody, V domains shown)
VH: EVQLLESGGGLVQPGGSLRLSCAASGFTFSNYFMNWVRQAPGKGLEWVSEIRLKFTNYATHYADSVKGRFTISRDDSKSTLYLQMNSLRAEDTAVYYCTRDYGSRNGYFDYWGQGTLVTVSS
VL: DIVMTQTPLSLPVTPGEPASISCRSSKSLLHSNGNTFLYWFLQKPGQSPQLLIYRMSNLASGVPDRFSGSGSGTDFTLKISRVEAEDVGVYYCMQHLEYPYTFGGGTKLEIKR
notes: Humanized, human IgG1 / kappa; also called hz2-7(1L2)
B2: Anti-C1s antibody hz2-8 (H1L2 G80A) (antibody, V domains shown)
VH: QVQLVQSGAEVKKPGASVKVSCKASGFNIKEYYMHWVRQAPEQGLEWMGWIDPENADTIYAQKFQGRVTITADTSTNTAYMELSSLRSEDTAVYYCARSRLFFAYWGQGTLVTVSS
VL: DIQMTQSPKSLSASVGDRVTITCRASQDVRTALDWYQQKPGQSPKLLIYSASYRYSGVPSRFSGSGSGTDFTLTISSLQPEDFATYYCQQQYTTPYTFGQGTKLEIKR
notes: Humanized variant with G80A in HC CDR2 (already in the entry), human IgG1 / kappa
B3: Anti-C1s antibody hz2-8 (H1L2 G80A/T82A) (antibody, V domains shown)
VH: B2 VH with T58A
VL: B2 VL
notes: Humanized variant with G80A and T82A in HC CDR2 (already in the entry), human IgG1 / kappa

Columns and labels:
[1] = molecular target: T1, human C1s mutant M11 (S349P); test: ELISA, plate coated with human C1s mutant M11: S349P, OD450nm
Experimental: (§1) ELISA was carried out by first coating 96-well plates with 200 ng/well of full-length or truncated C1s proteins overnight. The next morning, plates were blocked with SuperBlock T20 blocking buffer (Thermo Scientific 37536) for 1 h with gentle shaking. Then, various concentrations of anti-C1s antibodies diluted in SuperBlock T20 blocking buffer were added to the plates and incubated for 1 h with gentle shaking. Mouse IgG (Sigma-Aldrich 15381) and human IgG1 (BioXCell BP0297) were used as negative controls. The plates were washed before incubating with HRP conjugated secondary antibodies diluted in SuperBlock T20 blocking buffer (goat anti-mouse IgG (H+L) cross-adsorbed secondary antibody HRP (Invitrogen G-21040) or goat anti-human IgG antibody, HRP conjugate (Millipore AP309P)) for 1 h with gentle shaking. At last, the plates were washed and color developed with ELISA liquid HRP substrate (Sigma-Aldrich), followed by stopping the reaction with addition of 1M H₂SO₄ in the same volume as the ELISA liquid substrate. Bound antibody was measured by absorbance at OD₄₅₀ₙₘ.
Binding of anti-C1s antibodies to mutants M1-M20 of human C1s was measured by ELISA as described in Example 4, and results are shown in FIGS. 6B-6U. All anti-C1s humanized variants including hz2-7(H1L2), hz2-8(H1L2 G80A) and hz2-8(H1L2 G80A/T82A) maintained strong binding properties to the majority (16 out of 20) of C1s mutants including M1 (FIG. 6B), M2 (FIG. 6C), M3 (FIG. 6D). M4 (FIG. 6E), M7 (FIG. 6H), M8 (FIG. 6I), M10 (FIG. 6K), M11 (FIG. 6L), M12 (FIG. 6M), M13 (FIG. 6N), M15 (FIG. 6P), M16 (FIG. 6Q), M17 (FIG. 6R), M18 (FIG. 6S), M19 (FIG. 6T) and M20 (FIG. 6U).

[2] = molecular target: T2, human C1s mutant M6 (P280A, E282K & …); test: ELISA, plate coated with human C1s mutant M6: P280A, E282K, K336G, OD450nm
Experimental: as §1
Binding of anti-C1s antibodies to mutants M1-M20 of human C1s was measured by ELISA as described in Example 4, and results are shown in FIGS. 6B-6U. […]

Row | Binder | EC50 [1] [ng/mL] | EC50 [2] [ng/mL]
1 | B1 | 5 | 13
2 | B2 | 4 | 
3 | B3 | 5 | 60
